From PMC4416707
Each block holds one substance with its values, some of them ahead of it.

Tests used:
Experiment in all cases: SEC; size exclusion chromatography of the purified LOV constructs under dark state conditions; apparent MW compared with the expected monomer MW of 17 kDa
[1] = molecular target: Methylocystis rosea short LOV protein McLOVr (Methylocystis rosea)
[2] = molecular target: Methylocystis short LOV protein McLOVn (Methylocystis Rockwall)
[3] = molecular target: McLOVn-TF residues 337-490 (isolated LOV domain of the Methylocystis LOV transcription factor) (Methylocystis Rockwall)

stoichiometry N [1]: 2
Substance: Methylocystis rosea short LOV protein McLOVr (natural protein)

stoichiometry N [2]: 2
Substance: Methylocystis short LOV protein McLOVn (natural protein)

stoichiometry N [3]: 2
Substance: McLOVn-TF residues 337-490 (isolated LOV domain of the Methylocystis LOV transcription factor) (domain or fragment)
